The record followed here is article PMC3794980.

Holding throughout (assay): radioligand binding
The target of assay [1] is HLA-DR DRB1*0101 (human (endogenous in EBV transformed cell lines)).
Assay [2] addresses HLA-DR DRB1*1501 (human (endogenous in EBV transformed cell lines)).
Assay [3] addresses HLA-DR DRB5*0101 (human (endogenous in EBV transformed cell lines)).
The target in assay [4] is HLA-DR DRB1*0701 (human (endogenous in EBV transformed cell lines)).
Assay [5] addresses HLA-DR DRB1*1101 (human (endogenous in EBV transformed cell lines)).
Assay [6] addresses HLA-DR DRB4*0101 (human (endogenous in EBV transformed cell lines)).
Assay [7] deals with HLA-DR DRB1*0401 (human (endogenous in EBV transformed cell lines)).
In assay [8] the target is HLA-DR DRB1*0301 (human (endogenous in EBV transformed cell lines)).
Assay [9] concerns the target HLA-DR DRB3*0101 (human (endogenous in EBV transformed cell lines)).
Assay [10] has as its target HLA-DR DRB1*0901 (human (endogenous in EBV transformed cell lines)).
Assay [11] deals with HLA-DR DRB1*0802 (human (endogenous in EBV transformed cell lines)).

With DENV3 NS3 57-71 (peptide), the concentration for half-maximal inhibition (IC50) in assay [1] came out at 0.882 µM; in assay [2], 0.196 µM.
In [3], DENV3 NS5 165-181 (peptide) returned a half-maximal inhibitory concentration (IC50) of 0.0199 µM.
DENV3 NS1 93-107 (peptide) came in with an IC50 in [4] of 0.483 µM.
DENV3 NS3 241-255 (peptide): the values for the IC50 in [4] and in assay [3] were 0.525 µM and 0.0167 µM, respectively.
In [5], DENV3 NS5 588-604 (peptide) came in with an IC50 of 0.124 µM.
On to DENV3 NS1 293-307 (peptide), for which the IC50 in assay [6] came out at 0.793 µM; in assay [4] it was 0.0832 µM.
For DENV3 NS5 284-300 (peptide), the IC50 in [7] is 0.306 µM; in assay [8], 0.00934 µM; in assay [9], 0.0171 µM.
DENV3 NS5 780-795 (peptide): the IC50 in assay [6] is 0.168 µM.
Consider DENV3 Envelope 231-245 (peptide), for which the IC50 in [10] turned out to be 0.0484 µM; in assay [3], 0.0246 µM; in [1] it was 0.00511 µM; in [2], 0.00525 µM.
DENV3 NS3 345-359 (peptide): in assay [9], the IC50 is 0.0318 µM.
As for DENV3 Envelope 251-265 (peptide), the IC50 in assay [3] was found to be 0.722 µM; in assay [1], 0.588 µM.
On to DENV3 NS3 381-395 (peptide), for which the IC50 in [9] was found to be 0.399 µM.
As to DENV3 Envelope 316-330 (peptide), the IC50 in assay [5] came out at 0.153 µM; in [2] it was 0.361 µM.
Consider DENV3 NS1 69-83 (peptide), for which, in [9], the IC50 turned out to be 0.0502 µM.
In turn, DENV3 NS1 261-275 (peptide) registered an IC50 in assay [6] of 0.666 µM.
For DENV3 NS1 29-43 (peptide), the IC50 in assay [9] came to 0.0106 µM; in assay [3] it was 0.0228 µM.
For DENV3 NS5 636-652 (peptide), the IC50 in assay [4] is 0.352 µM; in assay [2], 0.453 µM.
Turning to DENV3 NS5 582-598 (peptide), in assay [5], the half-inhibitory concentration (IC50) was 0.106 µM.
In the case of DENV3 NS1 133-147 (peptide), in assay [9], the IC50 was 0.0623 µM.
Consider DENV3 NS5 501-517 (peptide), for which the IC50 in [7] was 0.0736 µM; in [10], 0.351 µM; in assay [11], 0.836 µM; in assay [4] it was 0.0175 µM; in [1] it was 0.00698 µM.
Turning to DENV3 NS3 181-195 (peptide), the IC50 amounted to 0.0678 µM in assay [6] and 0.891 µM in assay [2].
DENV3 NS3 393-407 (peptide) registered an IC50 in [4] of 0.456 µM.
Take DENV3 NS3 105-119 (peptide): the IC50 in [10] stood at 0.407 µM; in [11], 0.175 µM; in assay [6], 0.843 µM; in assay [3], 0.177 µM; in assay [1], 0.049 µM.
For DENV3 NS5 306-322 (peptide), in [11], the IC50 was 0.0702 µM.
In assay [3], DENV3 NS3 73-87 (peptide) returned an IC50 of 0.0707 µM.
In turn, DENV3 NS1 269-283 (peptide) gave an IC50 in assay [9] of 0.0713 µM.
In the case of DENV3 Envelope 236-250 (peptide), the IC50 was found to be 0.419 µM in assay [11], 0.56 µM in [4], 0.0296 µM in assay [3] and 0.34 µM in assay [1].
In assay [11], DENV3 NS5 330-346 (peptide) displayed an IC50 of 0.00401 µM.
DENV3 NS5 301-316 (peptide) showed an IC50 in assay [9] of 0.536 µM.
Consider DENV3 NS1 193-207 (peptide), for which the figures for the IC50 in [6] and in assay [9] were 0.18 µM and 0.0243 µM, respectively.
Regarding DENV3 NS3 413-427 (peptide), the results for the IC50 in [8] and in assay [9] were 0.261 µM and 0.0961 µM, respectively.
Turning to DENV3 Envelope 171-185 (peptide), the IC50 in assay [11] is 0.0912 µM; in [6], 0.787 µM; in [1], 0.0626 µM.
Turning to DENV3 NS1 33-47 (peptide), the half-inhibitory concentration (IC50) in assay [6] turned out to be 0.916 µM; in [9], 0.0224 µM.
Consider DENV3 NS3 137-151 (peptide), for which the IC50 in assay [1] turned out to be 0.843 µM; in assay [2] it was 0.502 µM.
On to DENV3 NS3 409-423 (peptide), for which the IC50 amounted to 0.47 µM in assay [8], 0.168 µM in assay [9] and 0.0503 µM in assay [3].
For the substance DENV3 NS3 69-83 (peptide), the IC50 in assay [2] is 0.0295 µM.
In the case of DENV3 NS3 77-91 (peptide), the IC50 is 0.268 µM in assay [10], 0.708 µM in assay [6] and 0.0521 µM in assay [2].
DENV3 NS5 268-284 (peptide) registered an IC50 in assay [6] of 0.869 µM.
As for DENV3 Envelope 366-380 (peptide), the IC50 worked out at 0.762 µM in [11] and 0.552 µM in assay [4].
In turn, DENV3 Envelope 306-320 (peptide) had an IC50 in assay [7] of 0.53 µM.
DENV3 NS1 229-243 (peptide): the IC50 amounted to 0.178 µM in [7], 0.17 µM in assay [8] and 0.733 µM in assay [9].
On to DENV3 NS5 45-61 (peptide), for which the IC50 in assay [6] was 0.00853 µM; in [4], 0.453 µM; in assay [3], 0.449 µM; in assay [5] it was 0.0825 µM.
With DENV3 NS3 605-619 (peptide), the values for the IC50 in [11], in [3] and in assay [2] were 0.0368 µM, 0.0196 µM and 0.0281 µM, respectively.
Take DENV3 NS3 109-123 (peptide): the 50% inhibitory concentration (IC50) in [11] came out at 0.557 µM; in assay [1], 0.148 µM.
DENV3 NS3 125-139 (peptide): the IC50 in assay [8] is 0.0472 µM.
As to DENV3 NS3 357-371 (peptide), the IC50 in assay [8] came to 0.436 µM; in assay [10], 0.1 µM; in [6], 0.759 µM; in assay [9] it was 0.711 µM; in assay [4] it was 0.0295 µM; in [3], 0.273 µM. Besides, the figures for the IC50 in assay [1] and in assay [2] were 0.0159 µM and 0.0157 µM, respectively.
Consider DENV3 NS3 349-363 (peptide), for which the IC50 in assay [9] came out at 0.221 µM; in [2], 0.608 µM.
Turning to DENV3 NS3 113-127 (peptide), the IC50 in assay [7] came to 0.0179 µM; in assay [1] it was 0.226 µM.
Take DENV3 NS1 313-327 (peptide): the IC50 in [6] came out at 0.503 µM.
As for DENV3 NS1 233-247 (peptide), the IC50 in assay [7] came out at 0.087 µM; in assay [8], 0.0726 µM; in assay [9], 0.159 µM.
The substance DENV3 NS5 658-674 (peptide) gave a 50% inhibitory concentration (IC50) in [11] of 0.453 µM.
Take DENV3 NS3 429-443 (peptide): the IC50 in assay [9] was 0.00572 µM.
With DENV3 NS5 447-463 (peptide), the half-inhibitory concentration (IC50) in assay [3] came to 0.025 µM.
Consider DENV3 NS3 389-403 (peptide), for which, in [5], the IC50 stood at 0.676 µM.
Take DENV3 Envelope 281-295 (peptide): the results for the IC50 in assay [8], in assay [9] and in assay [2] were 0.0167 µM, 0.0311 µM and 0.652 µM, respectively.
As for DENV3 Envelope 376-390 (peptide), the IC50 in [11] is 0.0846 µM; in assay [9] it was 0.0153 µM; in [1], 0.476 µM; in assay [2], 0.448 µM.
For DENV3 Envelope 261-275 (peptide), the IC50 in assay [4] was determined as 0.0821 µM.
Consider DENV3 NS5 29-45 (peptide), for which the IC50 in assay [5] was 0.289 µM.
In assay [1], DENV3 NS5 290-306 (peptide) came in with an IC50 of 0.299 µM.
As to DENV3 NS3 209-223 (peptide), in assay [6], the IC50 was found to be 0.00506 µM.
In the case of DENV3 Envelope 301-315 (peptide), the values for the IC50 in assay [7] and in assay [11] were 0.0266 µM and 0.0589 µM, respectively.
For the substance DENV3 NS1 241-255 (peptide), in assay [1], the IC50 is 0.0507 µM.
For DENV3 NS1 121-135 (peptide), the IC50 in assay [11] was 0.0455 µM; in [6], 0.382 µM; in assay [1], 0.355 µM.
DENV3 NS1 305-319 (peptide): the IC50 in [8] was 0.841 µM.
For DENV3 NS5 495-511 (peptide), the concentration for half-maximal inhibition (IC50) in assay [7] came to 0.0149 µM; in assay [10], 0.448 µM; in [4], 0.19 µM; in assay [3] it was 0.723 µM.
DENV3 NS5 570-586 (peptide) yielded an IC50 in assay [3] of 0.0278 µM.
Consider DENV3 Envelope 51-65 (peptide), for which the IC50 came out at 0.13 µM in [11]; 0.154 µM in assay [6]; 0.0806 µM in assay [1]; 0.0404 µM in assay [5]; 0.982 µM in [2].
As to DENV3 Envelope 121-135 (peptide), the IC50 in assay [2] came out at 0.404 µM.
Take DENV3 NS5 39-55 (peptide): the IC50 in assay [6] is 0.563 µM; in [9], 0.749 µM.
In assay [8], DENV3 NS3 121-135 (peptide) came in with an IC50 of 0.00864 µM.
Regarding DENV3 NS5 670-686 (peptide), the IC50 was determined as 0.971 µM in assay [6] and 0.478 µM in assay [3].
Consider DENV3 NS3 53-67 (peptide), for which the IC50 in assay [3] was found to be 0.329 µM.
For DENV3 NS3 313-327 (peptide), the IC50 in assay [11] amounted to 0.0397 µM.
Regarding DENV3 NS5 642-658 (peptide), the concentration for half-maximal inhibition (IC50) in assay [8] was determined as 0.775 µM; in [3], 0.00507 µM; in assay [1], 0.166 µM; in assay [5], 0.665 µM; in assay [2], 0.0594 µM.
Regarding DENV3 NS5 336-352 (peptide), the IC50 in assay [6] came to 0.747 µM.
Regarding DENV3 NS3 417-431 (peptide), the IC50 in assay [9] amounted to 0.632 µM.
For DENV3 NS5 838-854 (peptide), the results for the 50% inhibitory concentration (IC50) in assay [10] and in [9] were 0.68 µM and 0.0792 µM, respectively.
Regarding DENV3 NS1 297-311 (peptide), the IC50 is 0.484 µM in [7]; 0.561 µM in assay [11]; 0.262 µM in [4]; 0.228 µM in [1]; 0.736 µM in assay [2].
Take DENV3 NS5 511-527 (peptide): the IC50 in [6] was found to be 0.0567 µM; in assay [3] it was 0.611 µM.
DENV3 NS5 295-311 (peptide) showed an IC50 in assay [9] of 0.98 µM.

As usually defined, the IC50 is the concentration needed to halve the response being measured. Low readings indicate inhibition by little substance, high ones a need for much substance.
